{"source": "paper PMC5936033", "data": [{"tested_on": "GST-VP1 (Chicken anaemia virus (strain CAU269/7?))", "experiment": "EMSA (agarose)", "conditions": "50 mM Tris-HCl pH 7.5, 120 mM KCl, 1.0 mM EDTA, 0.5 mM DTT, 30 mg/ml BSA (so in the source); 100 ng DNA in 20 ul, 37 C, 30 min (Results: 1 h); 0.8% agarose/TAE. Text …", "values": [{"substance": "CAV genome minus-strand linear ssDNA", "percent unbound DNA (% unbound DNA)": 53.3}, {"substance": "M13mp18 ssDNA", "percent unbound DNA (% unbound DNA)": 46.5}, {"substance": "linear pcDNA3.1 (EcoRI)", "percent unbound DNA (% unbound DNA)": 84.7}, {"substance": "pCAV, open circular (form I)", "percent unbound DNA (% unbound DNA)": 59.6}, {"substance": "pCAV, supercoiled (form II)", "percent unbound DNA (% unbound DNA)": 82.6}]}]}
